Laboratory results: US7320863B2, “Thyroid sodium/iodide symporter and nucleic acid encoding same” (Albert Einstein College of Medicine of Yeshiva University, priority 1996, dated 2008)

Substrate: I
Test: cells, lysate or membranes
Settings: other: initial velocity rates at 2 min, iodide 1.25 to 250 μM, oocytes 60 h after injection; 37.0 °C

B1: rat sodium/iodide symporter (Rattus norvegicus) (protein)
chain: MEGAEAGARATFGAWDYGVFATMLLVSTGIGLWVGLARGGQRSADDFFTGGRQLAAVPVGLSLAASFMSAVQVLGVPAEAARYGLKFLWMCAGQLLNSLLTAFLFLPIFYRLGLTSTYQYLELRFSRAVRLCGTLQYLVATMLYTGIVIYAPALILNQVTGLDIWASLLSTGIICTLYTTVGGMKAVVWTDVFQVVVMLVGFWVILARGVILLGGPRNVLSLAQNHSRINLMDFDPDPRSRYTFWTFIVGGTLVWLSMYGVNQAQVQRYVACHTEGKAKLALLVNQLGLFLIVASAACCGIVMFVYYKDCDPLLTGRISAPDQYMPLLVLDIFEDLPGVPGLFLACAYSGTLSTASTSINAMAAVTVEDLIKPRMPGLAPRKLVFISKGLSFIYGSACLTVAALSSLLGGGVLQGSFTVMGVISGPLLGAFTLGMLLPACNTPGVLSGLAAGLAVSLWVAVGATLYPPGEQTMGVLPTSAAGCTNDSVLLGPPGATNASNGIPSSGMDTGRPALADTFYAISYLYYGALGTLTTMLCGALISYLTGPTKRSSLGPGLLWWDLARQTASVAPKEDTATLEESLVKGPEDIPAVTKKPPGLKPGAETHPLYLGHDVETNL
Km: 36 µM
